The source of these data is the DeepSol protein solubility set.

This data set in a line: soluble on expression in E. coli; label from the status in PepcDB or PDB records.
For the sequence “KGTVCVTNLSTGSKRLGAIAPNSTMLAVRNSADCLLALQQNHADAVISDDAILSGMIAQDPFTHIVGDPIATEQYAVAFAKPRTGRDTAPMIRQVNSTFERIFRDGTWTRTYNHWFGAYLAPQVHPAVHYREER”, the “soluble on expression in E. coli” value was “not soluble”.

Turning to “MGSDKIHHHHHHMTNQIKIAVIGVGRWGVHLLRNFLAHPQVDVVAVVDPHPERLAAIKQQFNLDENVVLTTQWEDLKKVPGLTGVAIATPATTHYALIKDSLQQGYHVLAEKPLTLDPAECRELCQLAEQHHLILMVDHTYLFHPAVEQGQTVVQAGKLGDLRYGYATRTHLGPVRQDVDALWDLAIHDIAIFNAWLGQIPVKVQATGTVWLQGAGEQGSREAEGKKDTNFPLPQGLADLVWLTLTYPDGFQAYIHLCWLNPDKQRRLGIVGSLGSLIFDEMSRSSPLTLLHGEFEQQGNHFIPVNQKQVVLELEPGEPLGRVCSCFVDSILNNTPSEVSSGWVGTQLVEILAALTVSLEQGGQPVFLNNCSQV”, the “soluble on expression in E. coli” value is given as “not soluble”.

In the case of “MILELDCGNSLIKWRVIEGAARSVAGGLAESDDALVEQLTSQQALPVRACRLVSVRSEQETSQLVARLEQLFPVSALVASSGKQLAGVRNGYLDYQRLGLDRWLALVAAHHLAKKACLVIDLGTAVTSDLVAADGVHLGGYICPGMTLMRSQLRTHTRRIRYDDAEARRALASLQPGQATAEAVERGCLLMLRGFVREQYAMACELLGPDCEIFLTGGDAELVRDELAGARIMPDLVFVGLALACPIE”, the “soluble on expression in E. coli” value is listed as “not soluble”.

For the sequence “MLRKISLLLSICFLLHQNIAYGEDNQQSIYEKRMALYKETEQSSGIPWYYLAAMDQYERNIRSVRKDIPKKPDAIISLYFKPEIWAGPVNGNDTLPHTIALFGGLGLDGDKDGFANANNDRDLLHTAATILKKQGTSEERIKIMLWEYYRRAKTVDLITEYAQIYKHYGRINLEGNAFPLPIRSDHSYRSTFGAGRSFGGRRVHEGTDIFAGYGVPVRSTCYGIIETKGWNRLGGWRIGIRDLHNNYHYYAHLGGFSKEIQLGQIVEPGKVIGFVGSTGYGPPGTAGKFPPHLHFGMYKDNGYTEWAFDPYMHLSLWERKERANTKR”, the “soluble on expression in E. coli” value was “not soluble”.

For the sequence “MGKTSRDKRDIYYRLAKENKWRARSAFKLMQIDDEFQILKGVRRAVDLCAAPGSWSQVLSKRLYEEDQEAKIVAIDLQPMAPIPGVIQLQGDITSVDTANQVIKHFSGEKSDIVICDGAPDVTGIHSLDEFMQAELILAAFNITSHVLKEGGNFLAKIFRSRNSSLLYAQMKKYFKKVYLAKPRSSRQSSCEAFVLCLDYSPPEGFVPTMGKTSLDATDASAISPDIIDGFVTCGDLSGWDSEKSYPLDIDACFPKGEIDEEQKKRYEFKDVVQPPTDPAYKAALDKKKSGVFAKMSADLNRQLKAELSRGKDQKKTPAENVPSVEELEKAAEKFQL”, the “soluble on expression in E. coli” value was “not soluble”.

In the case of “MAKPFTPEQREELKTRIVELVHQDGRVTIRQLSDETGISRASVGRLCIELVASGDVYNSGYGLFPSEQARKDWQSARKKLSRVKVRKPVVVDPDLIWSLPDGEIRRYDRRLNIICRECRKSEAMQRVLAFYQGNFQEAIL”, the “soluble on expression in E. coli” value was “not soluble”.

For “MRTTYREHLDAFAQDLITMCDTVAAVVEGASTGLLEGSLQSAQHALSLSDELDEVKNRATKRAVQLLSLEAPVARDLRQIVSSIYIIEDFDRMASLAMHIASMARRRHPDLVVPEPIRGYFHEMARLCTEMSDKTRSVLVDPDADVAIVLAADDDAIDDIHEHIMTLLTKKEWPFSTRAAVEVTLLARYYERFADHTVNVAAQIVYLTTGLMPEEYKKKRDDGFEPDEMEARFAQLEEQFANYDWPKPAD”, the “soluble on expression in E. coli” value is “not soluble”.

In the case of “GATDSATAAPAAAATTQVQKEAADVLQVAVQGANAMRDIQFARLALFHGQPDSAKKLTDDAAALLAADDASWAKFVKTDAKAKMIADRYVIINASIALSEDYVATPEKESAIQSANEKLAKGDQKGAIDTLRLAGIGVIENQYLMPLNQTRKAVAQSQELLKAGKYYEANLVLKGAEEGIVVDSEMLVAGN”, the “soluble on expression in E. coli” value is given as “soluble”.

As to “MGHHHHHHSHMAGLQRLASHLPVGVMLPHNTTEAPGPHSAKQDSYEQGDSSQQSLKGHLRNNFQKQLLSNKELILDKVYTHPKWNTQTKARSYSYPHCTGISQQDPESDSQGQGNGLFYSSGPQSWYPKANNQDFIPFTKKRVGVDRAFPLKPMVHRKSCSTGEAGTDGDHNVYPRPPEPREFSSRNFGVRNQGNFSVVGTVLAATQAEKAVANFDRTEWVQIRRLEAAGESLEEEIRRKQILLRGS”, the “soluble on expression in E. coli” value was “not soluble”.

For “MADDAGILYENSLDLLKSMKNFAGNVGEGEKKHPYGKAANAARAYGSGMKNSAASFNHSGEQFDKLFEACNTFKDQINGNVLAKLISFKDVECKDVDTQMTQLKKAQKDYANKKSKIVPDQVQVDAAEATLKKLLEEAKATLEKFNKTGCELLTQISADMKTGFDAYCDAAASIN”, the “soluble on expression in E. coli” value is “not soluble”.

With “MIMFNYQQTSQSCVKCGKCIPSCTIYNIHPDEVTSPRGFIDLLGAYQRGELELDKNAKDIFEKCFLCTNCTYVCPNLLPTDQVIENVRAEIAQKFGIAWFKRAYFFLLRNRWLMDWGLEHHHHHH”, the “soluble on expression in E. coli” value is on record as “not soluble”.

As for “MSLSSEPVVVAILPHAAELAEKIAAKIGGRVDLRGSDFTDTGAHLRSLFLAGHPIVGIGAAGIYIRSLASVLGDKNSEPPVLAVSEDARNIVPLLGGHHGANGLAKEIADYLETAAAVTTSGDVAMGVALDEPPQGWKLENPEDAKGAMAALLGGAKAQQSGNGDWLTPLSSRVEFSETDADAPVVLSVEGAAPLIYRRQSFALGLGCARGCDPDELIALVAKTLADNGRSIHEVAMVGSIDIKSDEAAIHAVARHLGVPARFFDADELNSVTPRLANPSEVVRAEVGVAGVSEGAALVMAGVSGALVIEKTKTANATCALARISQDGSEGHHHHHH”, the “soluble on expression in E. coli” value is recorded as “soluble”.

Take “MFTKSCAKATDQNRQELFMDSLLGDFQKMKEKALNQQQERRSKKRELHCKSSEKTKKPNQYAALTHSQVQEVKAKVRTVNDKFHLNAEEKKLWELILLGNQLAQNISSCDLPTDNEDDASLVKLTQIFADETLERTDLTWLNKILKIALYSRGSGFGNCQEKAFFVFALLLHQAQKPESLIHSLRLATFNNHFILIVNEQFLMDPWLNLAFPLSKGNQQLEIGYVFERFGRLVNYFSINQEGQCFTHTVREGGTIERDPSSEKDMANCIHSLLDHRDYFDLSIVSEREIHTNTKRRKYENQEQEVPQPRQETSNQPTETVYTDSSHNTWDNEGAADDFLEHFEQTHPVYNPGFFSFGQDDVGLKPDLPKNLFKF”: the “soluble on expression in E. coli” value is listed as “not soluble”.

On to “MGHHHHHHSHVAQFPTPFGGSLDTWAITVEERAKHDQQFHSLKPISGFITGDQARNFFFQSGLPQPVLAQIWALADMNNDGRMDQVEFSIAMKLIKLKLQGYQLPSALPPVMKQQPVAISS”, for which the “soluble on expression in E. coli” value is reported as “soluble”.

“MSLMKLTKLFLATAISLGVSSAVLAADYDLKFGMNAGTSSNEYKAAEMFAKEVKEKSQGKIEISLYPSSQLGDDRAMLKQLKDGSLDFTFAESARFQLFYPEAAVFALPYVISNYNVAQKALFDTEFGKDLIKKMDKDLGVTLLSQAYNGTRQTTSNRAINSIADMKGLKLRVPNAATNLAYAKYVGASPTPMAFSEVYLALQTNAVDGQENPLAAVQAQKFYEVQKFLAMTNHILNDQLYLVSNETYKELPEDLQKVVKDAAENAAKYHTKLFVDGEKDLVTFFEKQGVKITHPDLVPFKESMKPYYAEFVKQTGQKGESALKQIEAINPEGGSHHHHHH”: the “soluble on expression in E. coli” value is listed as “soluble”.

“MDKFRVYGQSRLSGSVNISGAKNAALPILFAAILATEPVKLTNVPELKDIETTLKILRQLGVVVDRDATGAVLLDASNINHFTAPYELVKTMRASIWALAPLVARFHQGQVSLPGGCSIGARPVDLHISGLEKLGADIVLEEGYVKAQVSDRLVGTRIVIEKVSVGATLSIMMAATLAKGTTVIENAAREPEIVDTADFLNKMGAKITGAGSAHITIEGVERLTGCEHSVVPDRIETGTFLIAAAISGGCVVCQNTKADTLDAVIDKLREAGAQVDVTENSITLDMLGNRPKAVNIRTAPHPGFPTDMQAQFTLLNMVAEGTSIITETIFENRFMHIPELIRMGGKAEIEGNTAVCHGVEQLSGTEVIATDLRASISLVLAGCIATGETIVDRIYHIDRGYEHIEDKLRGLGAKIERFSGSDEA”: the “soluble on expression in E. coli” value was “soluble”.

In the case of “MELGQAMVTVAGIGCRKGAASDAIIAAVRAAERAFGVTVDYLATAPLKADEAGLAEAAKGLSLSLEIVAQERLEAVAAETMTFSQASLDHSGSPSVSEAAALAAAGAGARLVAPRLVVGDVTVAIAMTSDAPHGSRSAIEYGEQE”, the “soluble on expression in E. coli” value is listed as “not soluble”.

In the case of “MQIDKLRGRELDQLFKAILSLRDLEECYRFFDDLCTVNEIQALAQRLEVARMLREGYTYHKIETETGASTATISRVKRCLNYGNDAYAMALDRIKEEQQQEEKEANEAVTD”, the “soluble on expression in E. coli” value was “not soluble”.

With “MGSDKIHHHHHHMITHIRVASQQLEQPRFESPKELVSWMGAIQAQEYEMAKWAIGIRLRSSSLEKVNEALYKGDILRTHVMRPTWHFVAAEDIRWMLMLSSERIKAAVMSYAKGHFGKIEKTLFTRYLDQIGKILEGYKSLTKQEVTTELQKSGILPTIDHVNLFLTWGEVEGIVCSGIDKGKKTTYALLDERVPPTRELCREEALARLASRYFQSHSPAQLQDFVWWSGLTATECRLAINLIKTELITETFDSREYFIHQSWKGKNESKPVLRLLPAFDEYLISYKNRTDVLPLEHHPKAFNRFGTFYPVILYNGKIIGNWSRSIKKNTIQIEMDFFEKKPRIPVKLIQQAEAQIDAFYRGLSHRPALQCREK”, the “soluble on expression in E. coli” value is listed as “not soluble”.

Take “MGSDKIHHHHHHMATRHDRDGGQTTANLTIATGLDAFTRKEWATLAGTTRSDSDYNPFISHEFLAALEESGCAARRTGWLPQHLRLEDANGSLLGVVPCYLKSHSKGEYVFDYGWADAFERAGGQYYPKLQVSVPFTPVTGPRLLASKDADPDAVRQALAEGLKTLTDRLGVSSLHVTFAPRSETEVLSHAGFLTRTDQQFHFFNEGYGSYEDFLEALASRKRKALKKERRTAVEAGMEIEWLTGRDITEAAWDDFFAFYMDTASRKWGRPYLNRLFFSLIGERMADDILLVMAKRGSRYIAGAINFIGSDALYGRNWGAIEHHPFLHFEVCYHQAIEFAIAKGLKRVEAGAQGEHKLARGYLPVTTYSAHYIAHPGLRRAVADYLSRERREVEAIGDFLTEHSPYKKG”: the “soluble on expression in E. coli” value was “not soluble”.

“KEKIAILVDVQNVYYTCREAYRSNFDYNQFWYVATQEKEVVSAKAYAIASNDPKQRQFHHILRGVGFEVMLKPYIQRRDGSAKGDWDVGITLDAIEIAPDVDRVILVSGDGDFSLLVERIQQRYNKKVTVYGVPRLTSQTLIDCADNFVAIDDDFL”: the “soluble on expression in E. coli” value is given as “not soluble”.

Consider “MITVSIAGGSQPEILQLVKKALKEAEQPLQFIVFDTNENLDTENLWKYVHCSDEAAVAQEAVSLVATGQAQILLKGIIQTHTLLKEMLKSEHQLKNKPILSHVAMVELPAGKTFLLTDCAMNIAPTQATLIEIVENAKEVAQKLGLHHPKIALLSAAENFNPKMPSSVLAKEVTAHFNDQQEATVFGPLSLDLATSEEAVAHKRYSGPIMGDADILVVPTIDVGNCLYKSLTLFGHAKVGGTIVGTKVPVVLTSRSDSTESKFHSLRFAMRQVHHHHHH”, for which the “soluble on expression in E. coli” value is “soluble”.

As to “SLGSQGSGLEQSSFQWSPSGRRTGSLYCRVGIGFHLQIYPDGKVNGSHEANMLSVLEIFAVSQGIVGIRGVFSNKFLAMSKKGKLHASAKFTDDCKFRERFQENSYNTYASAIHRTEKTGREWYVALNKRGKAKRGCSPRVKPQHISTHFLPRFKQSEQPELSFTVTVPEKEG”, the “soluble on expression in E. coli” value is recorded as “soluble”.

On to “GMATVRLLDDAEISTLPEVKAVFDDIRATRGSDFVNNIWRGLANDPALLKRTWEQVKTVMVGEGALDPLTREMIYLAVSTANSCSYCAHSHTAAARAKGMTPAQHAEVLAIIGLAAQTNALVTAMQIPVDEAFLVDGK”, for which the “soluble on expression in E. coli” value is “soluble”.
